Measurements reported in IntAct's records for PubMed 22289178.

B1: Alpha-crystallin B chain (Mus musculus), P23927 (parent)
chain: MDIAIHHPWIRRPFFPFHSPSRLFDQFFGEHLLESDLFSTATSLSPFYLRPPSFLRAPSWIDTGLSEMRLEKDRFSVNLDVKHFSPEELKVKVLGDVIEVHGKHEERQDEHGFISREFHRKYRIPADVDPLTITSSLSSDGVLTVNGPRKQVSGPERTIPITREEKPAVAAAPKK
B2: Gamma-crystallin D (Homo sapiens), P07320 (parent)
chain: MGKITLYEDRGFQGRHYECSSDHPNLQPYLSRCNSARVDSGCWMLYEQPNYSGLQYFLRRGDYADHQQWMGLSDSVRSCRLIPHSGSHRIRLYEREDYRGQMIEFTEDCSCLQDRFRFNEIHSLNVLEGSWVLYELSNYRGRQYLLMPGDYRRYQDWGATNARVGSLRRVIDFS
partner: B1 chain
B3: Gamma-crystallin D (Homo sapiens), P07320 (parent)
chain: B2 chain
partner: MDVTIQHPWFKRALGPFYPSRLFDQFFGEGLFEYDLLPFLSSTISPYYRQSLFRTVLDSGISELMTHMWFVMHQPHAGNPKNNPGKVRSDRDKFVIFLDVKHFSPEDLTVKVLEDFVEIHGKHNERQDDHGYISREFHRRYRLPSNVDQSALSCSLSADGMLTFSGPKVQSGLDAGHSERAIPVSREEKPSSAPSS

Variants of: B1
Settings: with crgd_human CRYGD, P07320

| effect of a mutation on the interaction | Variant |
| --- | --- |
| increasing interaction | MDIAIHHPWIRRPFFPFHSPSRLFDQFFGEHLLESDLFSTATSLDPFYLRPPSFLRAPSWIDTGLSEMRLEKDRFSVNLDVKHFSPEELKVKVLGDVIEVHGKHEERQDEHGFISREFHRKYRIPADVDPLTITSSLSSDGVLTVNGPRKQVSGPERTIPITREEKPAVAAAPKK |
| increasing interaction | MDIAIHHPWIRRPFFPFHDPSRLFDQFFGEHLLESDLFSTATSLSPFYLRPPSFLRAPSWIDTGLSEMRLEKDRFSVNLDVKHFSPEELKVKVLGDVIEVHGKHEERQDEHGFISREFHRKYRIPADVDPLTITSSLSSDGVLTVNGPRKQVSGPERTIPITREEKPAVAAAPKK |
| increasing interaction | MDIAIHHPWIRRPFFPFHSPSRLFDQFFGEHLLESDLFSTATSLSPFYLRPPSFLRAPDWIDTGLSEMRLEKDRFSVNLDVKHFSPEELKVKVLGDVIEVHGKHEERQDEHGFISREFHRKYRIPADVDPLTITSSLSSDGVLTVNGPRKQVSGPERTIPITREEKPAVAAAPKK |

Variants of: B2
Settings: with cryab_mouse Cryab, P23927

| effect of a mutation on the interaction | Variant |
| --- | --- |
| increasing interaction | I4F |
| increasing interaction | V76D |

Variants of: B3
Settings: with cryaa_rat Cryaa

| effect of a mutation on the interaction | Variant |
| --- | --- |
| increasing interaction | I4F |
| increasing interaction | V76D |
